From patent publication US20260167699A1 (Chugai, published 2026)

B1: GpH7-A5/GpH7-B3 variant P238_10E/GpL16-k0 (antibody, human IgG1, kappa)
heavy 1: not shown
heavy 2: not shown
light: DIVMTQSPLSLPVTPGEPASISCQASESLVHSNRNTYLHWYLQKPGQSPQLLIYKVSNRFSGVPDRFSGSGSGTDFTLKISRVEAEDVGVYYCSQNTHVPPTFGQGTKVEIERTVAAPSVFIFPPSDEQLKSGTASVVCLLNNFYPREAKVQWKVDNALQSGNSQESVTEQDSKDSTYSLSSTLTLSKADYEKHKVYACEVTHQGLSSPVTKSFNRGEC
notes: He Ab; copies: 1 + 1 + 2
B2: GpH7-A5/GpH7-B3 variant P238_15Y/GpL16-k0 (antibody, human IgG1, kappa)
heavy 1: not shown
heavy 2: not shown
light: DIVMTQSPLSLPVTPGEPASISCQASESLVHSNRNTYLHWYLQKPGQSPQLLIYKVSNRFSGVPDRFSGSGSGTDFTLKISRVEAEDVGVYYCSQNTHVPPTFGQGTKVEIERTVAAPSVFIFPPSDEQLKSGTASVVCLLNNFYPREAKVQWKVDNALQSGNSQESVTEQDSKDSTYSLSSTLTLSKADYEKHKVYACEVTHQGLSSPVTKSFNRGEC
notes: He Ab; copies: 1 + 1 + 2
B3: GpH7-A5/GpH7-B3 variant P271_06M/GpL16-k0 (antibody, human IgG1, kappa)
heavy 1: not shown
heavy 2: not shown
light: DIVMTQSPLSLPVTPGEPASISCQASESLVHSNRNTYLHWYLQKPGQSPQLLIYKVSNRFSGVPDRFSGSGSGTDFTLKISRVEAEDVGVYYCSQNTHVPPTFGQGTKVEIERTVAAPSVFIFPPSDEQLKSGTASVVCLLNNFYPREAKVQWKVDNALQSGNSQESVTEQDSKDSTYSLSSTLTLSKADYEKHKVYACEVTHQGLSSPVTKSFNRGEC
notes: He Ab; copies: 1 + 1 + 2
B4: GpH7-A5/GpH7-B3 variant P238_19Q/GpL16-k0 (antibody, human IgG1, kappa)
heavy 1: not shown
heavy 2: not shown
light: DIVMTQSPLSLPVTPGEPASISCQASESLVHSNRNTYLHWYLQKPGQSPQLLIYKVSNRFSGVPDRFSGSGSGTDFTLKISRVEAEDVGVYYCSQNTHVPPTFGQGTKVEIERTVAAPSVFIFPPSDEQLKSGTASVVCLLNNFYPREAKVQWKVDNALQSGNSQESVTEQDSKDSTYSLSSTLTLSKADYEKHKVYACEVTHQGLSSPVTKSFNRGEC
notes: He Ab; copies: 1 + 1 + 2
B5: GpH7-A5/GpH7-B3 variant P271_03V/GpL16-k0 (antibody, human IgG1, kappa)
heavy 1: not shown
heavy 2: not shown
light: DIVMTQSPLSLPVTPGEPASISCQASESLVHSNRNTYLHWYLQKPGQSPQLLIYKVSNRFSGVPDRFSGSGSGTDFTLKISRVEAEDVGVYYCSQNTHVPPTFGQGTKVEIERTVAAPSVFIFPPSDEQLKSGTASVVCLLNNFYPREAKVQWKVDNALQSGNSQESVTEQDSKDSTYSLSSTLTLSKADYEKHKVYACEVTHQGLSSPVTKSFNRGEC
notes: He Ab; copies: 1 + 1 + 2
B6: GpH7-A5/GpH7-B3 variant P271_02A/GpL16-k0 (antibody, human IgG1, kappa)
heavy 1: not shown
heavy 2: not shown
light: DIVMTQSPLSLPVTPGEPASISCQASESLVHSNRNTYLHWYLQKPGQSPQLLIYKVSNRFSGVPDRFSGSGSGTDFTLKISRVEAEDVGVYYCSQNTHVPPTFGQGTKVEIERTVAAPSVFIFPPSDEQLKSGTASVVCLLNNFYPREAKVQWKVDNALQSGNSQESVTEQDSKDSTYSLSSTLTLSKADYEKHKVYACEVTHQGLSSPVTKSFNRGEC
notes: He Ab; copies: 1 + 1 + 2
B7: GpH7-A5/GpH7-B3 variant P271_11K/GpL16-k0 (antibody, human IgG1, kappa)
heavy 1: not shown
heavy 2: not shown
light: DIVMTQSPLSLPVTPGEPASISCQASESLVHSNRNTYLHWYLQKPGQSPQLLIYKVSNRFSGVPDRFSGSGSGTDFTLKISRVEAEDVGVYYCSQNTHVPPTFGQGTKVEIERTVAAPSVFIFPPSDEQLKSGTASVVCLLNNFYPREAKVQWKVDNALQSGNSQESVTEQDSKDSTYSLSSTLTLSKADYEKHKVYACEVTHQGLSSPVTKSFNRGEC
notes: He Ab; copies: 1 + 1 + 2
B8: GpH7-A5/GpH7-B3 variant P271_14T/GpL16-k0 (antibody, human IgG1, kappa)
heavy 1: not shown
heavy 2: not shown
light: DIVMTQSPLSLPVTPGEPASISCQASESLVHSNRNTYLHWYLQKPGQSPQLLIYKVSNRFSGVPDRFSGSGSGTDFTLKISRVEAEDVGVYYCSQNTHVPPTFGQGTKVEIERTVAAPSVFIFPPSDEQLKSGTASVVCLLNNFYPREAKVQWKVDNALQSGNSQESVTEQDSKDSTYSLSSTLTLSKADYEKHKVYACEVTHQGLSSPVTKSFNRGEC
notes: He Ab; copies: 1 + 1 + 2
B9: GpH7-A5/GpH7-B3 variant P271_13S/GpL16-k0 (antibody, human IgG1, kappa)
heavy 1: not shown
heavy 2: not shown
light: DIVMTQSPLSLPVTPGEPASISCQASESLVHSNRNTYLHWYLQKPGQSPQLLIYKVSNRFSGVPDRFSGSGSGTDFTLKISRVEAEDVGVYYCSQNTHVPPTFGQGTKVEIERTVAAPSVFIFPPSDEQLKSGTASVVCLLNNFYPREAKVQWKVDNALQSGNSQESVTEQDSKDSTYSLSSTLTLSKADYEKHKVYACEVTHQGLSSPVTKSFNRGEC
notes: He Ab; copies: 1 + 1 + 2
B10: GpH7-A5/GpH7-B3 variant P271_08L/GpL16-k0 (antibody, human IgG1, kappa)
heavy 1: not shown
heavy 2: not shown
light: DIVMTQSPLSLPVTPGEPASISCQASESLVHSNRNTYLHWYLQKPGQSPQLLIYKVSNRFSGVPDRFSGSGSGTDFTLKISRVEAEDVGVYYCSQNTHVPPTFGQGTKVEIERTVAAPSVFIFPPSDEQLKSGTASVVCLLNNFYPREAKVQWKVDNALQSGNSQESVTEQDSKDSTYSLSSTLTLSKADYEKHKVYACEVTHQGLSSPVTKSFNRGEC
notes: He Ab; copies: 1 + 1 + 2
B11: GpH7-A5/GpH7-B3 variant P271_09D/GpL16-k0 (antibody, human IgG1, kappa)
heavy 1: not shown
heavy 2: not shown
light: DIVMTQSPLSLPVTPGEPASISCQASESLVHSNRNTYLHWYLQKPGQSPQLLIYKVSNRFSGVPDRFSGSGSGTDFTLKISRVEAEDVGVYYCSQNTHVPPTFGQGTKVEIERTVAAPSVFIFPPSDEQLKSGTASVVCLLNNFYPREAKVQWKVDNALQSGNSQESVTEQDSKDSTYSLSSTLTLSKADYEKHKVYACEVTHQGLSSPVTKSFNRGEC
notes: He Ab; copies: 1 + 1 + 2
B12: GpH7-A5/GpH7-B3 variant P271_10E/GpL16-k0 (antibody, human IgG1, kappa)
heavy 1: not shown
heavy 2: not shown
light: DIVMTQSPLSLPVTPGEPASISCQASESLVHSNRNTYLHWYLQKPGQSPQLLIYKVSNRFSGVPDRFSGSGSGTDFTLKISRVEAEDVGVYYCSQNTHVPPTFGQGTKVEIERTVAAPSVFIFPPSDEQLKSGTASVVCLLNNFYPREAKVQWKVDNALQSGNSQESVTEQDSKDSTYSLSSTLTLSKADYEKHKVYACEVTHQGLSSPVTKSFNRGEC
notes: He Ab; copies: 1 + 1 + 2
B13: GpH7-A5/GpH7-B3 variant P271_01G/GpL16-k0 (antibody, human IgG1, kappa)
heavy 1: not shown
heavy 2: not shown
light: DIVMTQSPLSLPVTPGEPASISCQASESLVHSNRNTYLHWYLQKPGQSPQLLIYKVSNRFSGVPDRFSGSGSGTDFTLKISRVEAEDVGVYYCSQNTHVPPTFGQGTKVEIERTVAAPSVFIFPPSDEQLKSGTASVVCLLNNFYPREAKVQWKVDNALQSGNSQESVTEQDSKDSTYSLSSTLTLSKADYEKHKVYACEVTHQGLSSPVTKSFNRGEC
notes: He Ab; copies: 1 + 1 + 2
B14: GpH7-A5/GpH7-B3 variant P271_07I/GpL16-k0 (antibody, human IgG1, kappa)
heavy 1: not shown
heavy 2: not shown
light: DIVMTQSPLSLPVTPGEPASISCQASESLVHSNRNTYLHWYLQKPGQSPQLLIYKVSNRFSGVPDRFSGSGSGTDFTLKISRVEAEDVGVYYCSQNTHVPPTFGQGTKVEIERTVAAPSVFIFPPSDEQLKSGTASVVCLLNNFYPREAKVQWKVDNALQSGNSQESVTEQDSKDSTYSLSSTLTLSKADYEKHKVYACEVTHQGLSSPVTKSFNRGEC
notes: He Ab; copies: 1 + 1 + 2
B15: GpH7-A5/GpH7-B3 variant P271_04F/GpL16-k0 (antibody, human IgG1, kappa)
heavy 1: not shown
heavy 2: not shown
light: DIVMTQSPLSLPVTPGEPASISCQASESLVHSNRNTYLHWYLQKPGQSPQLLIYKVSNRFSGVPDRFSGSGSGTDFTLKISRVEAEDVGVYYCSQNTHVPPTFGQGTKVEIERTVAAPSVFIFPPSDEQLKSGTASVVCLLNNFYPREAKVQWKVDNALQSGNSQESVTEQDSKDSTYSLSSTLTLSKADYEKHKVYACEVTHQGLSSPVTKSFNRGEC
notes: He Ab; copies: 1 + 1 + 2
B16: GpH7-A5/GpH7-B3 variant P271_12R/GpL16-k0 (antibody, human IgG1, kappa)
heavy 1: not shown
heavy 2: not shown
light: DIVMTQSPLSLPVTPGEPASISCQASESLVHSNRNTYLHWYLQKPGQSPQLLIYKVSNRFSGVPDRFSGSGSGTDFTLKISRVEAEDVGVYYCSQNTHVPPTFGQGTKVEIERTVAAPSVFIFPPSDEQLKSGTASVVCLLNNFYPREAKVQWKVDNALQSGNSQESVTEQDSKDSTYSLSSTLTLSKADYEKHKVYACEVTHQGLSSPVTKSFNRGEC
notes: He Ab; copies: 1 + 1 + 2

The binders below were run against T1, FcγRIIIa extracellular domain, C-terminal His tag (human, UniProt P08637 17-208) (assay: SPR, binding activity relative to GpH7-A5/GpH7-B3/GpL16-k0 (=100)).
T1 construct: extracellular domain; also called 3a
T1 sequence (P08637 other isoform, or with tags, fused parts or gaps): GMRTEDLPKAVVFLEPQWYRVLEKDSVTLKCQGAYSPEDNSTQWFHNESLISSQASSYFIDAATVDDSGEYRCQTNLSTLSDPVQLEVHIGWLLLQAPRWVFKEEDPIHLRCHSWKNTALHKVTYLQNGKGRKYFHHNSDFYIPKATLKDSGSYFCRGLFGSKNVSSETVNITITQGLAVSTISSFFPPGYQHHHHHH
B1 was tested, and the “He/Con 3a” value was 98.9%. B2 was tested, and the “He/Con 3a” value was 61%. With B3 the “He/Con 3a” value was 74%. In the case of B4, the “He/Con 3a” value is reported as 52.7%. B5 was tested, and the “He/Con 3a” value was 73.5%. For B6, the “He/Con 3a” value was 83.7%. With B7 the “He/Con 3a” value was 92.5%. In the case of B8, the “He/Con 3a” value is reported as 59.2%. With B9 the “He/Con 3a” value was 79.8%. For B10, the “He/Con 3a” value was 74.5%. With B11 the “He/Con 3a” value was 97.7%. With B12 the “He/Con 3a” value was 98.2%. With B13 the “He/Con 3a” value was 119%. In the case of B14, the “He/Con 3a” value is reported as 80.2%. With B15 the “He/Con 3a” value was 65.6%. With B16 the “He/Con 3a” value was 87.6%.
